Results taken from the Human Domainome abundance scans (Beltran et al. 2025).
± gives the uncertainty stated by the source.

B1: Neutrophil cytosol factor 2, residues 456 to 514; numbered along this chain, P19878 (parent)
chain: LKKGSQVEALFSYEATQPEDLEFQEGDIILVLSKVNEEWLEGECKGKVGIFPKVFVEDC

Variants of: B1
Test: abundance fitness (aPCA) (normalised: wild type 0, dead -1); higher = more abundant; growth selection in yeast, the domain comes from the species named
Details: Homo sapiens

Row | Variant | abundance fitness
1 | LKKGSQVEALFSYEATQPEDLEFQEGDIILGLSKVNEEWLEGECKGKVGIFPKVFVEDC [V31G] | 0.001 ± 0.071
2 | LKKGSQVEALFSYEATQPEDLEFQEGDIILLLSKVNEEWLEGECKGKVGIFPKVFVEDC [V31L] | 0.041 ± 0.11
3 | LKKGSQVEALFSYEATQPEDLEFQEGDIILPLSKVNEEWLEGECKGKVGIFPKVFVEDC [V31P] | -0.046 ± 0.14
4 | LKKGSQVEALFSYEATQPEDLEFQEGDIILTLSKVNEEWLEGECKGKVGIFPKVFVEDC [V31T] | -0.482 ± 0.19
5 | LKKGSQVEALFSYEATQPEDLEFQEGDIILHLSKVNEEWLEGECKGKVGIFPKVFVEDC [V31H] | -0.369 ± 0.14
6 | LKKGSQVEALFSYEATQPEDLEFQEGDIILFLSKVNEEWLEGECKGKVGIFPKVFVEDC [V31F] | -0.354 ± 0.13
7 | LKKGSQVEALFSYEATQPEDLEFQEGDIILWLSKVNEEWLEGECKGKVGIFPKVFVEDC [V31W] | -0.6 ± 0.45
8 | LKKGSQVEALFSYEATQPEDLEFQEGDIILRLSKVNEEWLEGECKGKVGIFPKVFVEDC [V31R] | -0.581 ± 0.16
9 | LKKGSQVEALFSYEATQPEDLEFQEGDIILILSKVNEEWLEGECKGKVGIFPKVFVEDC [V31I] | 0.342 ± 0.077
10 | LKKGSQVEALFSYEATQPEDLEFQEGDIILNLSKVNEEWLEGECKGKVGIFPKVFVEDC [V31N] | -0.092 ± 0.092
11 | LKKGSQVEALFSYEATQPEDLEFQEGDIILCLSKVNEEWLEGECKGKVGIFPKVFVEDC [V31C] | -0.418 ± 0.14
12 | LKKGSQVEALFSYEATQPEDLEFQEGDIILKLSKVNEEWLEGECKGKVGIFPKVFVEDC [V31K] | -0.621 ± 0.48
13 | LKKGSQVEALFSYEATQPEDLEFQEGDIILYLSKVNEEWLEGECKGKVGIFPKVFVEDC [V31Y] | -0.479 ± 0.13
14 | LKKGSQVEALFSYEATQPEDLEFQEGDIILVLSNVNEEWLEGECKGKVGIFPKVFVEDC [K34N] | -0.287 ± 0.13
15 | LKKGSQVEALFSYEATQPEDLEFQEGDIILVLSQVNEEWLEGECKGKVGIFPKVFVEDC [K34Q] | -0.215 ± 0.27
16 | LKKGSQVEALFSYEATQPEDLEFQEGDIILVLSEVNEEWLEGECKGKVGIFPKVFVEDC [K34E] | 0.466 ± 0.14
17 | LKKGSQVEALFSYEATQPEDLEFQEGDIILVLSIVNEEWLEGECKGKVGIFPKVFVEDC [K34I] | 0.456 ± 0.08
18 | LKKGSQVEALFSYEATQPEDLEFQEGDIILVLSCVNEEWLEGECKGKVGIFPKVFVEDC [K34C] | -0.242 ± 0.12
19 | LKKGSQVEALFSYEATQPEDLEFQEGDIILVLSFVNEEWLEGECKGKVGIFPKVFVEDC [K34F] | -0.459 ± 0.13
20 | LKKGSQVEALFSYEATQPEDLEFQEGDIILVLSDVNEEWLEGECKGKVGIFPKVFVEDC [K34D] | -0.026 ± 0.11
21 | LKKGSQVEALFSYEATQPEDLEFQEGDIILVLSLVNEEWLEGECKGKVGIFPKVFVEDC [K34L] | -0.436 ± 0.14
22 | LKKGSQVEALFSYEATQPEDLEFQEGDIILVLSAVNEEWLEGECKGKVGIFPKVFVEDC [K34A] | -0.359 ± 0.13
23 | LKKGSQVEALFSYEATQPEDLEFQEGDIILVLSHVNEEWLEGECKGKVGIFPKVFVEDC [K34H] | 0.059 ± 0.12

Row | Variant | abundance fitness
24 | LKKGSQVEALFSYEATQPEDLEFQEGDIILVLSPVNEEWLEGECKGKVGIFPKVFVEDC [K34P] | -0.853 ± 0.4
25 | LKKGSQVEALFSYEATQPEDLEFQEGDIILVLSGVNEEWLEGECKGKVGIFPKVFVEDC [K34G] | -0.822 ± 0.17
26 | LKKGSQVEALFSYEATQPEDLEFQEGDIILVLSMVNEEWLEGECKGKVGIFPKVFVEDC [K34M] | -0.326 ± 0.2
27 | LKKGSQVEALFSYEATQPEDLEFQEGDIILVMSKVNEEWLEGECKGKVGIFPKVFVEDC [L32M] | -0.532 ± 0.49
28 | LKKGSQVEALFSYEATQPEDLEFQEGDIILVISKVNEEWLEGECKGKVGIFPKVFVEDC [L32I] | -0.06 ± 0.11
29 | LKKGSQVEALFSYEATQPEDLEFQEGDIILVYSKVNEEWLEGECKGKVGIFPKVFVEDC [L32Y] | -0.249 ± 0.13
30 | LKKGSQVEALFSYEATQPEDLEFQEGDIILVSSKVNEEWLEGECKGKVGIFPKVFVEDC [L32S] | -0.069 ± 0.079
31 | LKKGSQVEALFSYEATQPEDLEFQEGDIILVCSKVNEEWLEGECKGKVGIFPKVFVEDC [L32C] | -0.428 ± 0.13
32 | LKKGSQVEALFSYEATQPEDLEFQEGDIILVRSKVNEEWLEGECKGKVGIFPKVFVEDC [L32R] | 0.564 ± 0.079
33 | LKKGSQVEALFSYEATQPEDLEFQEGDIILVDSKVNEEWLEGECKGKVGIFPKVFVEDC [L32D] | -0.054 ± 0.095
34 | LKKGSQVEALFSYEATQPEDLEFQEGDIILVVSKVNEEWLEGECKGKVGIFPKVFVEDC [L32V] | -0.297 ± 0.1
35 | LKKGSQVEALFSYEATQPEDLEFQEGDIILVNSKVNEEWLEGECKGKVGIFPKVFVEDC [L32N] | 0.304 ± 0.095
36 | LKKGSQVEALFSYEATQPEDLEFQEGDIILVASKVNEEWLEGECKGKVGIFPKVFVEDC [L32A] | -0.297 ± 0.14
37 | LKKGSQVEALFSYEATQPEDLEFQEGDIILVPSKVNEEWLEGECKGKVGIFPKVFVEDC [L32P] | -0.146 ± 0.15
38 | LKKGSQVEALFSYEATQPEDLEFQEGDIILVTSKVNEEWLEGECKGKVGIFPKVFVEDC [L32T] | 0.325 ± 0.088
39 | LKKGSQVEALFSYEATQPEDLEFQEGDIILVESKVNEEWLEGECKGKVGIFPKVFVEDC [L32E] | -0.299 ± 0.19
40 | LKKGSQVEALFSYEATQPEDLEFQEGDIILVHSKVNEEWLEGECKGKVGIFPKVFVEDC [L32H] | 0.166 ± 0.1
41 | LKKGSQVEALFSYEATQPEDLEFQEGDIILVQSKVNEEWLEGECKGKVGIFPKVFVEDC [L32Q] | -0.143 ± 0.34
42 | LKKGSQVEALFSYEATQPEDLEFQEGDIILVKSKVNEEWLEGECKGKVGIFPKVFVEDC [L32K] | 0.194 ± 0.15
43 | LKKGSQVEALFSYEATQPEDLEFQEGDIILVFSKVNEEWLEGECKGKVGIFPKVFVEDC [L32F] | -0.118 ± 0.12
44 | LKKGSQVEALFSYEATQPEDLEFQEGDIITVLSKVNEEWLEGECKGKVGIFPKVFVEDC [L30T] | 1.05 ± 0.089
45 | LKKGSQVEALFSYEATQPEDLEFQEGDIIIVLSKVNEEWLEGECKGKVGIFPKVFVEDC [L30I] | 0.032 ± 0.1
